# Assay results reported in patent US12274759B2, “Affibody proteins specific for B7-H3 (CD276)” (THE BOARD OF TRUSTEES OF THE LELAND STANFORD JUNIOR …, priority 2018, dated 2025).
# B1: anti- B7-H3 antibody: biotinylated anti-B7-H3 antibody conjugated to beads as positive control (protein)
# VHH: QVQLVESGGGLVQPGGSLRLSCAASGFTFSSYWMYWVRQTPGKGLEWVSTINRDGSATWYADSVKGRFTISRDNAKNTGYLQMNSLKPDDTAVYYCVSDPDNYSSDEMVPYWGQGTQVTVSS
# Target: T1, recombinant soluble human B7-H3 ectodomain protein (Homo sapiens, UniProt Q5ZPR3)
# T1 construct: incubated with 3 μM of recombinant soluble human B7-H3 ectodomain protein
# T1 sequence (Q5ZPR3 29-466 limits assumed): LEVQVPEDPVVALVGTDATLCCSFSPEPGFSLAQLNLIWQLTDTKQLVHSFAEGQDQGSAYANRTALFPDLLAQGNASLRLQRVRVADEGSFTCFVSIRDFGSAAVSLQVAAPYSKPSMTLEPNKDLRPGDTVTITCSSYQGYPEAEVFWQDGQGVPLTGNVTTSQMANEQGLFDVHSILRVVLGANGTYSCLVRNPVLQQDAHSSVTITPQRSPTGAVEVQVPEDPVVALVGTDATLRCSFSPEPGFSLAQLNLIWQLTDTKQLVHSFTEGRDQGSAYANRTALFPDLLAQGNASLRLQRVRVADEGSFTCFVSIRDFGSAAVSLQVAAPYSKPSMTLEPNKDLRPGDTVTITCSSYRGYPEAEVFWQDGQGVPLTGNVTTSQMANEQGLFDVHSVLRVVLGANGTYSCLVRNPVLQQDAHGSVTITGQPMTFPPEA
# Assay: Streptavidin bead binding to recombinant soluble human B7-H3 ectodomain by flow cytometry
# Conditions: ligand immobilized to streptavidin magnetic beads; 3 μM recombinant soluble human B7-H3 ectodomain
# Excerpt: FIG. 9. Production and validation of ABYB7-H3.(A) Left panel: Commassie Blue staining of SDS-PAGE showing high purity and expected size (7,490 Da) of finalized ABYB7-H3 produced in E. Coli. Right panel: Mass spectrometric analysis of ABYB7-H3 showing a mass-to-charge peak (m/z=7,546) corresponding to ABY molecular weight. A doubly charged peak (m/z=3763) is also present. Amino acid sequence of ABYB7-H3 (SEQ ID NO:28) is shown on the bottom. (B) Flow cytometry of biotin-ABYB7-H3 conjugated streptavidin-microbeads complex showing binding to soluble recombinant B7-H3 (3 μM) as detected by APC conjugated anti-B7-H3 antibody. Unconjugated beads (negative control) and anti B7-H3 antibody (AB) conjugated beads (positive control) were also tested for binding to soluble B7-H3 antigen.
# Production of ABYB7-H3. Development of a B7-H3-binding ligand from an ABY yeast display library is described in Example 1. […] ABYB7-H3 ligand was recombinantly expressed in E. coli, purified, and functionalized with 1:1 molar ratio of biotin. […] In order to confirm binding specificity of recombinantly produced ABYB7-H3 to its target, biotinylated-ABY was immobilized to streptavidin- magnetic beads and incubated with 3 μM of recombinant soluble human B7-H3 ectodomain protein.
molecule,measurement,value
B1,binding to soluble B7-H3,81%
